# According to US8530168B2, “Fusion protein comprising a Caspase domain and a nuclear hormone receptor binding domain and methods and uses thereof” (Helmholtz Zentrum Munich Deutsches Forschungszentrum fuer …, priority 2007, dated 2013):
# B1: MFas-ER(T2): membrane-targeting signal peptide, transmembrane and intracellular domain of murine Fas fused to ER(T2); planned positive control (protein)
# chain: MLWIWAVLPLVLAGSQLRVHTTSNTNCRKQSPRNRLWLLTILVLLIPLVFIYRKYRKRKCWKRRQDDPESRTSSRETIPMNASNLSLSKYIPRIAEDMTIQEAKKFARENNIKEGKIDEIMHDSIQDTAEQKVQLLLCWYQSHGKSDAYQDLIKGLKKAECRRTLDKFQDMVQKDLGKSTPDTGNENEGQCLVEPSAGDMRAANLWPSPLMIKRSKKNSLALSLTADQMVSALLDAEPPILYSEYDPTRPFSEASMMGLLTNLADRELVHMINWAKRVPGFVDLTLHDQVHLLECAWLEILMIGLVWRSMEHPVKLLFAPNLLLDRNQGKCVEGMVEIFDMLLATSSRFRMMNLQGEEFVCLKSIILLNSGVYTFLSSTLKSLEEKDHIHRVLDKITDTLIHLMAKAGLTLQQQHQRLAQLLLILSHIRHMSNKGMEHLYSMKCKNVVPLYDLLLEAADAHRLHAPTSRGGASVEETDQSHLATAGSTSSHSLQKYYITGEAEGFPATA
# modifications: fusion protein MFas-ER(T2)
# notes: membrane-targeting signal peptide, transmembrane and intracellular domain of murine Fas fused to ER(T2); planned positive control
# B2: HAFas-ER(T2): HA epitope, transmembrane and intracellular domain of murine Fas (135-305) fused to ER(T2); planned positive control (protein)
# chain: MGYPYDVPDYATSNTNCRKQSPRNRLWLLTILVLLIPLVFIYRKYRKRKCWKRRQDDPESRTSSRETIPMNASNLSLSKYIPRIAEDMTIQEAKKFARENNIKEGKIDEIMHDSIQDTAEQKVQLLLCWYQSHGKSDAYQDLIKGLKKAECRRTLDKFQDMVQKDLGKSTPDTGNENEGQCLVEPSAGDMRAANLWPSPLMIKRSKKNSLALSLTADQMVSALLDAEPPILYSEYDPTRPFSEASMMGLLTNLADRELVHMINWAKRVPGFVDLTLHDQVHLLECAWLEILMIGLVWRSMEHPVKLLFAPNLLLDRNQGKCVEGMVEIFDMLLATSSRFRMMNLQGEEFVCLKSIILLNSGVYTFLSSTLKSLEEKDHIHRVLDKITDTLIHLMAKAGLTLQQQHQRLAQLLLILSHIRHMSNKGMEHLYSMKCKNVVPLYDLLLEAADAHRLHAPTSRGGASVEETDQSHLATAGSTSSHSLQKYYITGEAEGFPATA
# modifications: fusion protein HAFas-ER(T2)
# notes: planned positive control
# Legend:
# [1] = tested on: M5/N9 cells expressing myrCasp8-ER(T2); test: Ligand dose response, MTT assay, in cells expressing myrCasp8-ER(T2); format: cell-based, murine; settings: 48 hours, data not shown
# Procedure: (b) Transient cotransfection of a β-galactosidase reporter with a Cre-ER(T2), myrCasp8-ER(T2), or Casp9-ER(T2) expression plasmid into murine M5/N9 (black columns), human HeLa (grey columns) or zebrafish Pac2 (open columns) cells. 12 h following transfection, cells were cultured for 36 h with 4-OH-tamoxifen at 10^−8 M and the activity of β-galactosidase in cell lysates was determined. Values obtained from transfections of the Cre-ER(T2) vector were defined as reference.
# To quantify 4-OH-tamoxifen-inducible cell death, we applied the colorimetric MTT assay (Mossman, J. Immunol. Methods, 65, 55 (1983)) allowing the quantification of cell survival. Cells (4·10^3) were plated on 96-well plates. The assay was carried out in three replicas for each sample treated with and without 4-OH-tamoxifen. After 12 h, medium was replaced either with fresh medium or with medium supplemented with 10^−8 M 4-OH-tamoxifen. […] The crystals were dissolved in 150 μl 0.04 N HCl/isopropanol to give a homogeneous blue solution suitable for absorbance measurement at a wavelength of 570 nm on the Synergy™ HT Multi-Detection Microplate Reader (BioTek).
# Cell viability was determined following 48 hours of incubation with the respective ligand at concentrations ranging from 10^−6 M to 10^−12 M by using the MTT assay. […]
# [2] = tested on: MEF5/N9 cells; test: Transient cotransfection of ER(T2) fusion expression vectors with β-galactosidase reporter; β-galactosidase activity in lysates; format: cell-based, mouse; settings: 10^−8 M 4-OH-tamoxifen, 48 h; relative to Cre-ER(T2) without 4-OH-tamoxifen
# Procedure: The transformed mouse embryonic fibroblast cell line MEF5/N9 (Schwenk et al., Nucleic Acids Research, 26(6) 1427-1432 (1998)) was obtained from Michel Aguet (University of Zurich, Switzerland). The cells were grown in DMEM medium (Life Technologies) supplemented with 2 mM […] and 10% fetal calf serum at 37° C., 5% CO2 in humid atmosphere and passaged upon trypsinization. One day before transient transfection 4·10^4 cells were plated into a 24-well plate (Falcon). For the transient transfection of MEF5/N9 cells with plasmids, each well received into 500 μl of medium a total amount of 150 ng or 200 ng supercoiled plasmid DNA complexed before with the FuGene6 transfection reagent (Roche Diagnostics GmbH, Mannheim, Germany) according to the manufacturer's protocol. Each 150 ng or 200 ng DNA preparation (FIG. 2 sample 1 to 11) contained 100 ng of the β-Galactosidase expression vector pCMV-β-gal-pA (pCMVβ, Clontech, FIG. 1G, SEQ ID NO: 56), and 100 ng of the fusion ER(T2) expression vectors to be tested (FIG. 2 sample 3-7, 10-11) and the control plasmids (FIG. 2 sample 1-3), except for the samples with the plasmids pCAG-Casp9full-ER(T2)-bpA (FIG. 2 sample 8) and pCAG-Casp9trunc-ER(T2)-bpA (FIG. 2 sample 9), respectively, that received 50 ng of the test vector. For each sample to be tested four individual wells were transfected. Five hours after the addition of the DNA preparations each well received additional 500 μl of growth medium. The following day, the medium of two wells of each sample was replaced by fresh medium. The other two wells received medium containing 10^−8 M 4-hydroxy-tamoxifen (Sigma). 48 hours after induction with 4-OH-tamoxifen, the cells of each well were lysed with 200 μl lysate reagent supplemented with protease inhibitors (Roche Diagnostics GmbH). The lysates were centrifuged and 50 μl were used to determine the β-galactosidase activities using the β-galactosidase reporter gene assay (Roche Diagnostics GmbH) according to the manufacturer's protocol in a microplate luminometer (Berthold Detection Systems GmbH). The mean value and standard deviation of the samples was calculated from the β-galactosidase RLU values obtained from the two transfected wells of each sample. The relative β-galactosidase activity was obtained by comparison to the negative control (pCAG-Cre-ER(T2)-bpA) without 4-OH-tamoxifen.
# To investigate the cell death effect of the different ER(T2) fusion constructs quantitatively, we performed transient cotransfections of the ER(T2) fusion protein expression vectors together with a fixed amount of a reporter plasmid coding for β-galactosidase in MEF5/N9 fibroblast cells. Transfected cells were treated 12 hours after transfection with 4-OH-tamoxifen at a concentration of 10^−8 M. Following 48 hours of 4-OH-tamoxifen induction, the cells from the various samples were lysed and the activity of β-galactosidase in the lysates was determined by a chemiluminescence assay and expressed in “Relative Light Units” (RLU) (FIG. 2). As positive controls for 4-OH-tamoxifen-inducible cell death, we prepared samples transfected with the constructs pCAG-HAFas-ER(T2) or pCAG-MFas-ER(T2) together with the reporter plasmid and treatment with 4-OH-tamoxifen. As negative control for this assay served samples which received the reporter plasmid together with the expression vector pCAG-Cre-ER(T2) and that were treated with 4-OH-tamoxifen.
# To determine the relative activity of the tested ER(T2) fusion constructs inducing apoptosis in the presence of 4-OH-tamoxifen, the RLU values of β-galactosidase activity were divided individually for each sample by the RLU value obtained from the sample which received the plasmid pCAG-Cre-ER(T2) but was not treated with 4-OH-tamoxifen (defined as negative control). The relative activity of the tested Caspase- or bax-ER(T2) fusion proteins was then compared to the negative control for 4-OH-tamoxifen-dependent cell death defined as an activity of 1.
# [3] = tested on: MEF5/N9 cells; test: Visible phenotypic changes / viability of stably transfected MEF5/N9 clones on 4-OH-tamoxifen treatment; format: cell-based, mouse; settings: 10^−8 M 4-OH-tamoxifen, 24 h
# Procedure: (§1) To generate stably transfected MEF5/N9 cells, 2·10^6 cells were coelectroporated with 32 μg ER(T2) fusion plasmid DNA linearised with ScaI and 8 μg pPgk-hygro-pA plasmid DNA linearised with XhoI and plated into two 96-well plates. The cells were grown in DMEM medium (Invitrogen) supplemented with 2 mM Glutamine and 10% fetal calf serum at 37° C., 5% CO2 in humid atmosphere, and passaged upon trypsinization. Two days after transfection the medium was supplemented with 250 U/ml of hygromycin (Calbiochem) for the selection of stable integrants. Upon the growth of resistant colonies these were individually expanded in the presence of hygromycin.
# To examine 4-OH-tamoxifen-dependent cell death, 1·10^5 MEF5/N9 cells expressing ER(T2) fusion proteins were plated into each well of a six-well plate. The following day, for each sample the medium in two of four individual wells were replaced with medium supplemented with 10^−8 M 4-hydroxy-tamoxifen. 24 hours after induction with 4-OH-tamoxifen, cells were photographed through a Leica DMI6000B fluorescence microscope with phase contrast either at 10-fold or 20-fold magnification.
# Since the responsiveness of the clones, transfected with the same construct, to 4-OH-tamoxifen differed only slightly from each other, only the results obtained from one clone for each construct are shown in the figure.
# [4] = tested on: MEF5/N9 cells; test: MTT cytotoxicity assay of stably transfected MEF5/N9 clones; format: cell-based, mouse; settings: 10^−8 M 4-OH-tamoxifen, 48 h
# Procedure: as §1
# To quantify 4-OH-tamoxifen-inducible cell death, we applied the colorimetric MTT assay (Mossman, J. Immunol. Methods, 65, 55 (1983)) allowing the quantification of cell survival. Cells (4·10^3) were plated on 96-well plates. The assay was carried out in three replicas for each sample treated with and without 4-OH-tamoxifen. After 12 h, medium was replaced either with fresh medium or with medium supplemented with 10^−8 M 4-OH-tamoxifen. Following 48 h of 4-OH-tamoxifen treatment, sterile filtered MTT reagent in PBS (Sigma) was added at the concentration of 0.5 mg/ml. Incubation occurred for 4 hours at 37° C. With ongoing reaction time, dark violet MTT formazan crystals appeared on the bottom of the wells containing living cells. The crystals were dissolved in 150 μl 0.04 N HCl/isopropanol to give a homogeneous blue solution suitable for absorbance measurement at a wavelength of 570 nm on the Synergy™ HT Multi-Detection Microplate Reader (BioTek).
# [5] = tested on: MEF5/N9 cells; test: Transient cotransfection of ER(T2) fusion expression vectors with β-galactosidase reporter; β-galactosidase activity in lysates; format: cell-based, mouse; settings: no 4-OH-tamoxifen; transient transfection 50 or 100 ng vector; relative to Cre-ER(T2) without 4-OH-tamoxifen
Molecule,ligand concentration required to induce cell death [1],relative β-galactosidase activity in presence of 4-OH-tamoxifen compared to the negative control [2],"4-OH-tamoxifen-dependent cell death, phenotype of stable clones [3]",cell viability in the presence of 4-OH-tamoxifen (MTT) [4],basal toxicity: relative β-galactosidase activity compared to the negative control in absence of 4-OH-tamoxifen [5]
"C[C@]12CC[C@@H]3c4ccc(O)cc4CC[C@H]3[C@@H]1CC[C@@H]2O [E2, 17-β-estradiol]",≥ 10^−7 M,–,–,–,–
B1,–,26%,not affected by the treatment with 4-OH-tamoxifen,not affected by treatment with 4-OH-tamoxifen,60%
B2,–,23%,not affected by the treatment with 4-OH-tamoxifen,not affected by treatment with 4-OH-tamoxifen,52%
